Reference: paper PMC9482650, “Quantitative fragmentomics allow affinity mapping of interactomes” (Nature Communications, 2022)

T1: APBA2_2, Q99767
T1 sequence (Q99767 654-744, limits assumed, looked up): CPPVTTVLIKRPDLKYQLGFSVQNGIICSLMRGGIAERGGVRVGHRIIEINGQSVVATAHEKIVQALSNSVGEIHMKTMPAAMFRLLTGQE

T2: ARHGAP21, Q5T5U3
T2 sequence (Q5T5U3 45-169, limits assumed, looked up): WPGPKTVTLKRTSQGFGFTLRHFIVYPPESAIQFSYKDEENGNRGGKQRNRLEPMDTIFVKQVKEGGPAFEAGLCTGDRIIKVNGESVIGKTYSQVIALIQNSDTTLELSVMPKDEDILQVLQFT

T3: HTRA4, P83105
T3 sequence (P83105 378-476, limits assumed, looked up): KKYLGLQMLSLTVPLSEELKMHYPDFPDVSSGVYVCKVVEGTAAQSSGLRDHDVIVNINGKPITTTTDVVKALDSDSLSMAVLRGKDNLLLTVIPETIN

T4: LIN7C, Q9NUP9
T4 sequence (Q9NUP9 88-185, limits assumed, looked up): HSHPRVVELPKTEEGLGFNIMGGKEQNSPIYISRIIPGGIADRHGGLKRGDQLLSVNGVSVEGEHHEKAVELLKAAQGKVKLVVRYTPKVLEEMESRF

T5: LNX2_2, Q8N448
T5 sequence (Q8N448 334-432, limits assumed, looked up): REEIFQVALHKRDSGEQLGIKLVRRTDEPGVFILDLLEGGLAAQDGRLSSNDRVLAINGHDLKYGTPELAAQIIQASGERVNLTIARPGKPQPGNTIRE

T6: PDZRN3_1, Q9UPQ7
T6 sequence (Q9UPQ7 244-349, limits assumed, looked up): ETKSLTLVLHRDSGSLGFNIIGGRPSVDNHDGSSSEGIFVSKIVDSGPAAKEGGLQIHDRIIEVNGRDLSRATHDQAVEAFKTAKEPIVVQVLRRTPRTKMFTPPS

B1: STK16, O75716 (peptide)
chain: PAPGQHTTQI
B2: PPFIA1, Q13136 (peptide)
chain: DSATVRTYSC

These binders were tested against T1, APBA2_2, Q99767 (assay: holdup assay). Conditions: plain residues with an end cap or a label only (N-terminal biotin on a linker: ado-ado).
Parameters: key: below the threshold = too weak to quantify, mostly under pKd 3.1 to 4
With B1 the pKd was “below the threshold”.
B2 was tested, and the pKd was “below the threshold”.

What follows are binders tested against T2, ARHGAP21, Q5T5U3 (assay: holdup assay). Conditions: plain residues with an end cap or a label only (N-terminal biotin on a linker: ado-ado).
Parameters: key: below the threshold = too weak to quantify, mostly under pKd 3.1 to 4
With B1 the pKd was “below the threshold”.
In the case of B2, the pKd is reported as “below the threshold”.

Each binder was assayed against DLG1_2, Q12959 (assay: holdup assay). Conditions: plain residues with an end cap or a label only (N-terminal biotin on a linker: ado-ado).
Sequence of DLG1_2, Q12959 (Q12959 314-412): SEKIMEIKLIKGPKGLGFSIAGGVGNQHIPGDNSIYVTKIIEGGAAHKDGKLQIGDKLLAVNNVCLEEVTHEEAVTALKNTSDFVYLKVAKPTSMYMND
Parameters: key: below the threshold = too weak to quantify, mostly under pKd 3.1 to 4
In the case of B1, the pKd is reported as 3.73.
With B2 the pKd was “below the threshold”.

These binders were tested against DLG2_3, Q15700 (assay: holdup assay). Conditions: plain residues with an end cap or a label only (N-terminal biotin on a linker: ado-ado).
Parameters: key: below the threshold = too weak to quantify, mostly under pKd 3.1 to 4
Binder B1 has a pKd of 3.67.
For B2, the pKd was 3.73.

These binders were tested against DLG4_1, P78352 (assay: holdup assay). Conditions: plain residues with an end cap or a label only (N-terminal biotin on a linker: ado-ado).
Sequence of DLG4_1, P78352 (P78352 62-152): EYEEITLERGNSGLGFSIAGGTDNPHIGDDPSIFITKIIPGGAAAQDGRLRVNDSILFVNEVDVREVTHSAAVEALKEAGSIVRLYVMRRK
Parameters: key: below the threshold = too weak to quantify, mostly under pKd 3.1 to 4
With B1 the pKd was “below the threshold”.
With B2 the pKd was “below the threshold”.

The binders below were run against DLG4_2, P78352 (assay: holdup assay). Conditions: plain residues with an end cap or a label only (N-terminal biotin on a linker: ado-ado).
Sequence of DLG4_2, P78352 (P78352 155-259): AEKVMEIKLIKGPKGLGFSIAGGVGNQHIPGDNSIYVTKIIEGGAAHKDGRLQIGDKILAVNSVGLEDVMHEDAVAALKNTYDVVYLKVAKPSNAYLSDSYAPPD
Parameters: key: below the threshold = too weak to quantify, mostly under pKd 3.1 to 4
Work on B1 yielded a pKd of 3.87.
B2 was tested, and the pKd was “below the threshold”.

These binders were tested against DLG4_3, P78352 (assay: holdup assay). Conditions: plain residues with an end cap or a label only (N-terminal biotin on a linker: ado-ado).
Sequence of DLG4_3, P78352 (P78352 306-403): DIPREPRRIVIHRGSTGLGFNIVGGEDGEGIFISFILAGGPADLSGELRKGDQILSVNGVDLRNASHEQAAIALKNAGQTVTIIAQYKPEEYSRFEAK
Parameters: key: below the threshold = too weak to quantify, mostly under pKd 3.1 to 4
For B1, the pKd was “below the threshold”.
For B2, the pKd was “below the threshold”.

Each binder was assayed against FRMPD3, Q5JV73 (assay: holdup assay). Conditions: plain residues with an end cap or a label only (N-terminal biotin on a linker: ado-ado).
Sequence of FRMPD3, Q5JV73 (Q5JV73 12-100): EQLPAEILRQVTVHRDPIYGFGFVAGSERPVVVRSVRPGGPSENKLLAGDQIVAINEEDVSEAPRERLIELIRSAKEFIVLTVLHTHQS
Parameters: key: below the threshold = too weak to quantify, mostly under pKd 3.1 to 4
B1 was tested, and the pKd was “below the threshold”.
B2 was tested, and the pKd was “below the threshold”.

These binders were tested against FRMPD4, Q14CM0 (assay: holdup assay). Conditions: plain residues with an end cap or a label only (N-terminal biotin on a linker: ado-ado).
Sequence of FRMPD4, Q14CM0 (Q14CM0 67-160): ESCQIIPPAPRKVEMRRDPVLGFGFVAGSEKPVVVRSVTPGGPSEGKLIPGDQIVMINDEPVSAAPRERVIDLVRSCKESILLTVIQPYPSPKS
Parameters: key: below the threshold = too weak to quantify, mostly under pKd 3.1 to 4
B1 was tested, and the pKd was “below the threshold”.
B2 was tested, and the pKd was 3.8.

These binders were tested against GOPC, Q9HD26 (assay: holdup assay). Conditions: plain residues with an end cap or a label only (N-terminal biotin on a linker: ado-ado).
Parameters: key: below the threshold = too weak to quantify, mostly under pKd 3.1 to 4
For B1, the pKd was 3.77.
B2 was tested, and the pKd was “below the threshold”.

Each binder was assayed against GORASP1, Q9BQQ3 (assay: holdup assay). Conditions: plain residues with an end cap or a label only (N-terminal biotin on a linker: ado-ado).
Sequence of GORASP1, Q9BQQ3 (Q9BQQ3 1-208): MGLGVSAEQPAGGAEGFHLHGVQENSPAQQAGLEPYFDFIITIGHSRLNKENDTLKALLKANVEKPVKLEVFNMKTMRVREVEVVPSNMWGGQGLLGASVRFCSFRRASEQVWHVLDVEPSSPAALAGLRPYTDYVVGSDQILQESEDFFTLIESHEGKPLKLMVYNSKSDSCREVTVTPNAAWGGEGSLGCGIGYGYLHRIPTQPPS
Parameters: key: below the threshold = too weak to quantify, mostly under pKd 3.1 to 4
B1 was tested, and the pKd was “below the threshold”.
In the case of B2, the pKd is reported as “below the threshold”.

These binders were tested against GRASP, Q7Z6J2 (assay: holdup assay). Conditions: plain residues with an end cap or a label only (N-terminal biotin on a linker: ado-ado).
Sequence of GRASP, Q7Z6J2 (Q7Z6J2 96-193): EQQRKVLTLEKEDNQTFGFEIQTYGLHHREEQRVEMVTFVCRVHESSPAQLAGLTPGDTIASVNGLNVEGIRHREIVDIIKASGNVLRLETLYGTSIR
Parameters: key: below the threshold = too weak to quantify, mostly under pKd 3.1 to 4
Binder B1 has a pKd of 3.58.
Work on B2 yielded a pKd of 4.31.

The binders below were run against GRIP2_4, Q9C0E4 (assay: holdup assay). Conditions: plain residues with an end cap or a label only (N-terminal biotin on a linker: ado-ado).
Sequence of GRIP2_4, Q9C0E4 (Q9C0E4 446-548): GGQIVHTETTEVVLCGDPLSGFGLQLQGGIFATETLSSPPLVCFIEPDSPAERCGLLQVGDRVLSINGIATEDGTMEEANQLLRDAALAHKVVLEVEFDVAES
Parameters: key: below the threshold = too weak to quantify, mostly under pKd 3.1 to 4
For B1, the pKd was “below the threshold”.
For B2, the pKd was “below the threshold”.

What follows are binders tested against GRIP2_7, Q9C0E4 (assay: holdup assay). Conditions: plain residues with an end cap or a label only (N-terminal biotin on a linker: ado-ado).
Sequence of GRIP2_7, Q9C0E4 (Q9C0E4 934-1023): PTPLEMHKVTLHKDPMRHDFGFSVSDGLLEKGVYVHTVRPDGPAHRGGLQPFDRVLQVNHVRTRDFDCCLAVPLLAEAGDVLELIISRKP
Parameters: key: below the threshold = too weak to quantify, mostly under pKd 3.1 to 4
In the case of B1, the pKd is reported as “below the threshold”.
With B2 the pKd was 4.15.

These binders were tested against HTRA1, Q92743 (assay: holdup assay). Conditions: plain residues with an end cap or a label only (N-terminal biotin on a linker: ado-ado).
Sequence of HTRA1, Q92743 (Q92743 360-477): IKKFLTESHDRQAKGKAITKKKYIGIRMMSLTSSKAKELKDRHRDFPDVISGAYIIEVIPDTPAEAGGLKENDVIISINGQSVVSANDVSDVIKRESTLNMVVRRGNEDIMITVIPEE
Parameters: key: below the threshold = too weak to quantify, mostly under pKd 3.1 to 4
In the case of B1, the pKd is reported as “below the threshold”.
For B2, the pKd was 4.27.

Each binder was assayed against T3, HTRA4, P83105 (assay: holdup assay). Conditions: plain residues with an end cap or a label only (N-terminal biotin on a linker: ado-ado).
Parameters: key: below the threshold = too weak to quantify, mostly under pKd 3.1 to 4
B1 showed a pKd of 3.8.
With B2 the pKd was “below the threshold”.

These binders were tested against IL16_3, Q14005 (assay: holdup assay). Conditions: plain residues with an end cap or a label only (N-terminal biotin on a linker: ado-ado).
Sequence of IL16_3, Q14005 (Q14005 1107-1207): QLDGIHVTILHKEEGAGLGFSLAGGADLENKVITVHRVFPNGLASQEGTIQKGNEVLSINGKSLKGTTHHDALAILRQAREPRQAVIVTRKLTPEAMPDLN
Parameters: key: below the threshold = too weak to quantify, mostly under pKd 3.1 to 4
For B1, the pKd was “below the threshold”.
In the case of B2, the pKd is reported as “below the threshold”.

These binders were tested against IL16_4, Q14005 (assay: holdup assay). Conditions: plain residues with an end cap or a label only (N-terminal biotin on a linker: ado-ado).
Sequence of IL16_4, Q14005 (Q14005 1229-1329): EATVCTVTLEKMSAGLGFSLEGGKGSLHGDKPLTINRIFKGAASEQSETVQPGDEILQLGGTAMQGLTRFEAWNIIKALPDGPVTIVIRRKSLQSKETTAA
Parameters: key: below the threshold = too weak to quantify, mostly under pKd 3.1 to 4
With B1 the pKd was “below the threshold”.
B2 showed a pKd of 3.54.

These binders were tested against Inadl_4, Q8NI35 (assay: holdup assay). Conditions: plain residues with an end cap or a label only (N-terminal biotin on a linker: ado-ado).
Sequence of Inadl_4, Q8NI35 (Q8NI35 547-651): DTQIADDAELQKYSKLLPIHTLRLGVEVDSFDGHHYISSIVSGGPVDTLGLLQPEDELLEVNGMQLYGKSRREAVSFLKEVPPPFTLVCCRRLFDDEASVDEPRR
Parameters: key: below the threshold = too weak to quantify, mostly under pKd 3.1 to 4
In the case of B1, the pKd is reported as “below the threshold”.
In the case of B2, the pKd is reported as “below the threshold”.

What follows are binders tested against Inadl_5, Q8NI35 (assay: holdup assay). Conditions: plain residues with an end cap or a label only (N-terminal biotin on a linker: ado-ado).
Sequence of Inadl_5, Q8NI35 (Q8NI35 673-780): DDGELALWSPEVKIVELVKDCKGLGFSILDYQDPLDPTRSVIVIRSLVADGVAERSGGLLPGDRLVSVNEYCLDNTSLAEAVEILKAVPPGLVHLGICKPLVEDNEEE
Parameters: key: below the threshold = too weak to quantify, mostly under pKd 3.1 to 4
For B1, the pKd was “below the threshold”.
With B2 the pKd was “below the threshold”.

What follows are binders tested against Inadl_8, Q8NI35 (assay: holdup assay). Conditions: plain residues with an end cap or a label only (N-terminal biotin on a linker: ado-ado).
Sequence of Inadl_8, Q8NI35 (Q8NI35 1425-1530): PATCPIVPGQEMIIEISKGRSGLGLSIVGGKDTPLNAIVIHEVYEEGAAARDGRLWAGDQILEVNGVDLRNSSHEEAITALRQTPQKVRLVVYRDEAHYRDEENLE
Parameters: key: below the threshold = too weak to quantify, mostly under pKd 3.1 to 4
In the case of B1, the pKd is reported as “below the threshold”.
B2 was tested, and the pKd was “below the threshold”.

Each binder was assayed against LAP2, Q96RT1 (assay: holdup assay). Conditions: plain residues with an end cap or a label only (N-terminal biotin on a linker: ado-ado).
Sequence of LAP2, Q96RT1 (Q96RT1 other isoform, or with tags, fused parts or gaps): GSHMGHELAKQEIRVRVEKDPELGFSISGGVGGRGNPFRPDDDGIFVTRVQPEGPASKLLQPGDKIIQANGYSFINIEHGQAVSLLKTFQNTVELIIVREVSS
Parameters: key: below the threshold = too weak to quantify, mostly under pKd 3.1 to 4
In the case of B1, the pKd is reported as “below the threshold”.
In the case of B2, the pKd is reported as “below the threshold”.

Each binder was assayed against LDB3, O75112 (assay: holdup assay). Conditions: plain residues with an end cap or a label only (N-terminal biotin on a linker: ado-ado).
Sequence of LDB3, O75112 (O75112 1-94): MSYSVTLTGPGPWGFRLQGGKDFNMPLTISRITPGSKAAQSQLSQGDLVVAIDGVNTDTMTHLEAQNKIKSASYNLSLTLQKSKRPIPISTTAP
Parameters: key: below the threshold = too weak to quantify, mostly under pKd 3.1 to 4
B1 was tested, and the pKd was “below the threshold”.
B2 was tested, and the pKd was “below the threshold”.

The binders below were run against T4, LIN7C, Q9NUP9 (assay: holdup assay). Conditions: plain residues with an end cap or a label only (N-terminal biotin on a linker: ado-ado).
Parameters: key: below the threshold = too weak to quantify, mostly under pKd 3.1 to 4
B1 gave a pKd of 3.98.
With B2 the pKd was “below the threshold”.

The binders below were run against LNX1_1, Q8TBB1 (assay: holdup assay). Conditions: plain residues with an end cap or a label only (N-terminal biotin on a linker: ado-ado).
Sequence of LNX1_1, Q8TBB1 (Q8TBB1 261-371): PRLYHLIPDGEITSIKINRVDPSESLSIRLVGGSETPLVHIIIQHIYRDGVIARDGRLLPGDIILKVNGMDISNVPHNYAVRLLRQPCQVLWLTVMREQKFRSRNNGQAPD
Parameters: key: below the threshold = too weak to quantify, mostly under pKd 3.1 to 4
With B1 the pKd was “below the threshold”.
With B2 the pKd was “below the threshold”.

What follows are binders tested against T5, LNX2_2, Q8N448 (assay: holdup assay). Conditions: plain residues with an end cap or a label only (N-terminal biotin on a linker: ado-ado).
Parameters: key: below the threshold = too weak to quantify, mostly under pKd 3.1 to 4
For B1, the pKd was “below the threshold”.
B2 showed a pKd of 4.02.

These binders were tested against MAGI1_1, Q96QZ7 (assay: holdup assay). Conditions: plain residues with an end cap or a label only (N-terminal biotin on a linker: ado-ado).
Sequence of MAGI1_1, Q96QZ7 (Q96QZ7 1-106): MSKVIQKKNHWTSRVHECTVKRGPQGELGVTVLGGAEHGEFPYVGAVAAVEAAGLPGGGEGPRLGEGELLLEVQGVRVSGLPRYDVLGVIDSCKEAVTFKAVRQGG
Parameters: key: below the threshold = too weak to quantify, mostly under pKd 3.1 to 4
With B1 the pKd was “below the threshold”.
With B2 the pKd was “below the threshold”.

What follows are binders tested against MAGI2_2, Q86UL8 (assay: holdup assay). Conditions: plain residues with an end cap or a label only (N-terminal biotin on a linker: ado-ado).
Sequence of MAGI2_2, Q86UL8 (Q86UL8 410-522): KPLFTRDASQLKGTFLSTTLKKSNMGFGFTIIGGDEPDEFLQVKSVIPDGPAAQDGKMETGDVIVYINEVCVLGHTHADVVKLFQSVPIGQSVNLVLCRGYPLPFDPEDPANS
Parameters: key: below the threshold = too weak to quantify, mostly under pKd 3.1 to 4
For B1, the pKd was “below the threshold”.
B2 was tested, and the pKd was “below the threshold”.

The binders below were run against MAGI2_3, Q86UL8 (assay: holdup assay). Conditions: plain residues with an end cap or a label only (N-terminal biotin on a linker: ado-ado).
Sequence of MAGI2_3, Q86UL8 (Q86UL8 600-682): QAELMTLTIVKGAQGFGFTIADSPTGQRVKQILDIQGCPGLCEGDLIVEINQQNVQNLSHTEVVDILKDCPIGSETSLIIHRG
Parameters: key: below the threshold = too weak to quantify, mostly under pKd 3.1 to 4
In the case of B1, the pKd is reported as “below the threshold”.
In the case of B2, the pKd is reported as “below the threshold”.

Each binder was assayed against MAGI2_5, Q86UL8 (assay: holdup assay). Conditions: plain residues with an end cap or a label only (N-terminal biotin on a linker: ado-ado).
Sequence of MAGI2_5, Q86UL8 (Q86UL8 915-1017): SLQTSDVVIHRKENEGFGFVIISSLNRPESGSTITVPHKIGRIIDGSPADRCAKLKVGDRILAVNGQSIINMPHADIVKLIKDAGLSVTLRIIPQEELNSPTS
Parameters: key: below the threshold = too weak to quantify, mostly under pKd 3.1 to 4
For B1, the pKd was “below the threshold”.
With B2 the pKd was “below the threshold”.

These binders were tested against PDLIM1, O00151 (assay: holdup assay). Conditions: plain residues with an end cap or a label only (N-terminal biotin on a linker: ado-ado).
Sequence of PDLIM1, O00151 (O00151 1-87): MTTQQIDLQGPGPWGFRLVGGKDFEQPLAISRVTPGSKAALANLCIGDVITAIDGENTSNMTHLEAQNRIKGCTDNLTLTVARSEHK
Parameters: key: below the threshold = too weak to quantify, mostly under pKd 3.1 to 4
With B1 the pKd was “below the threshold”.
For B2, the pKd was “below the threshold”.

The binders below were run against T6, PDZRN3_1, Q9UPQ7 (assay: holdup assay). Conditions: plain residues with an end cap or a label only (N-terminal biotin on a linker: ado-ado).
Parameters: key: below the threshold = too weak to quantify, mostly under pKd 3.1 to 4
With B1 the pKd was “below the threshold”.
With B2 the pKd was “below the threshold”.

The binders below were run against TJP1_2, Q07157 (assay: holdup assay). Conditions: plain residues with an end cap or a label only (N-terminal biotin on a linker: ado-ado).
Sequence of TJP1_2, Q07157 (Q07157 181-274): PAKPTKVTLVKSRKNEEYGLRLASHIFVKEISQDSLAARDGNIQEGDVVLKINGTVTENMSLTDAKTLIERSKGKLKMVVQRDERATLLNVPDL
Parameters: key: below the threshold = too weak to quantify, mostly under pKd 3.1 to 4
With B1 the pKd was “below the threshold”.
For B2, the pKd was 3.48.
